Test results taken from patent US20070065895.

Assays:
[1] = target: T1, GST-Asp1459-Arg1668-H
T1 chain: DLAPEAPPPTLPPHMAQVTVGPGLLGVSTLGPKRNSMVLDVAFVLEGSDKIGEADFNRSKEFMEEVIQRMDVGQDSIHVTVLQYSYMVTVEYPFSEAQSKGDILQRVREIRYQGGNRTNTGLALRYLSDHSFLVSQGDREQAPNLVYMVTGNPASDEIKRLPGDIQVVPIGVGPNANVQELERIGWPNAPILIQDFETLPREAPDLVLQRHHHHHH

[2] = target: T2, GST-Asp1587-Arg1668-H
T2 chain: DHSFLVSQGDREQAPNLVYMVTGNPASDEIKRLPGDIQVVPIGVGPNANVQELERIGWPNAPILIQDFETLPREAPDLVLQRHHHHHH

[3] = target: T3, GST-Asp1596-Arg1659-H
T3 chain: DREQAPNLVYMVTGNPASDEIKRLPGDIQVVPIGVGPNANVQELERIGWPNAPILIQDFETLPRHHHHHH

[4] = target: T4, GST-Asp1596-Arg1668-H
T4 chain: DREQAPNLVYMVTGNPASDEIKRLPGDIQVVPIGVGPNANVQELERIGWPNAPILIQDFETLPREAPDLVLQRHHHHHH

[5] = target: T5, GST-Glu1554-Arg1668-H
T5 chain: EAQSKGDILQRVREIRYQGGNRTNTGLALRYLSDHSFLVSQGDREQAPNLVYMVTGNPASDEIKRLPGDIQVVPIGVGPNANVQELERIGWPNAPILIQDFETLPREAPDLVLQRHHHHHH

B1: ADAMTS-13 (von Willebrand factor cleaving enzyme), as present in normal plasma (protein)
chain: AAGGILHLELLVAVGPDVFQAHQEDTERYVLTNLNIGAELLRDPSLGAQFRVHLVKMVILTEPEGAPNITANLTSSLLSVCGWSQTINPEDDTDPGHADLVLYITRFDLELPDGNRQVRGVTQLGGACSPTWSCLITEDTGFDLGVTIAHEIGHSFGLEHDGAPGSGCGPSGHVMASDGAAPRAGLAWSPCSRRQLLSLLSAGRARCVWDPPRPQPGSAGHPPDAQPGLYYSANEQCRVAFGPKAVACTFAREHLDMCQALSCHTDPLDQSSCSRLLVPLLDGTECGVEKWCSKGRCRSLVELTPIAAVHGRWSSWGPRSPCSRSCGGGVVTRRRQCNNPRPAFGGRACVGADLQAEMCNTQACEKTQLEFMSQQCARTDGQPLRSSPGGASFYHWGAAVPHSQGDALCRHMCRAIGESFIMKRGDSFLDGTRCMPSGPREDGTLSLCVSGSCRTFGCDGRMDSQQVWDRCQVCGGDNSTCSPRKGSFTAGRAREYVTFLTVTPNLTSVYIANHRPLFTHLAVRIGGRYVVAGKMSISPNTTYPSLLEDGRVEYRVALTEDRLPRLEEIRIWGPLQEDADIQVYRRYGEEYGNLTRPDITFTYFQPKPRQAWVWAAVRGPCSVSCGAGLRWVNYSCLDQARKELVETVQCQGSQQPPAWPEACVLEPCPPYWAVGDFGPCSASCGGGLRERPVRCVEAQGSLLKTLPPARCRAGAQQPAVALETCNPQPCPARWEVSEPSSCTSAGGAGLALENETCVPGADGLEAPVTEGPGSVDEKLPAPEPCVGMSCPPGWGHLDATSAGEKAPSPWGSIRTGAQAAHVWTPAAGSCSVSCGRGLMELRFLCMDSALRVPVQEELCGLASKPGSRREVCQAVPCPARWQYKLAACSVSCGRGVVRRILYCARAHGEDDGEEILLDTQCQGLPRPEPQEACSLEPCPPRWKVMSLGPCSASCGLGTARRSVACVQLDQGQDVEVDEAACAALVRPEASVPCLIADCTYRWHVGTWMECSVSCGDGIQRRRDTCLGPQAQAPVPADFCQHLPKPVTVRGCWAGPCVGQGTPSLVPHEEAAAPGRTTATPAGASLEWSQARGLLFSPAPQPRRLLPGPQENSVQSSACGRQHLEPTGTIDMRGPGQADCAVAIGRPLGEVVTLRVLESSLNCSAGDMLLLWGRLTWRKMCRKLLDMTFSSKTNTLVVRQRCGRPGGGVLLRYGSQLAPETFYRECDMQLFGPWGEIVSPSLSPATSNAGGCRLFINVAPHARIAIHALATNMGAGTEGANASYILIRDTHSLRTTAFHGQQVLYWESESSQAEMEFSEGFLKAQASLRGQYWTLQSWVPEMQDPQSWKGKEGT
In the case of B1, the “cleavage fragment after 2 h reaction with normal plasma at 37 C (SDS-PAGE, western blot with anti-GST antibody)” value (“cleavage fragment after 2 h reaction” for short) [1] is reported as “did not give the fragment or was difficult to give the fragment”, the “cleavage fragment after 2 h reaction” value [2] is reported as “the expected fragment (indicated by the arrowheads in the figure) was clearly yielded” and the “cleavage fragment after 2 h reaction” value [3] is reported as “did not give the fragment or was difficult to give the fragment”. The “cleavage fragment after 2 h reaction” value [4] was “the expected fragment (indicated by the arrowheads in the figure) was clearly yielded”, the “cleavage fragment after reaction with plasma of TTP patients and family members against normal plasma (SDS-PAGE, western blot with anti-GST antibody)” value [4] was “When each of plasma samples from two patients was reacted with GST-Asp^1596Arg^1668H, there was not detected the fragment which is yielded by the reaction with normal plasma; with plasma of about one-half ADAMTS-13 activity the fragment was yielded at smaller amounts than with the normal plasma” and the “cleavage fragment after 2 h reaction” value [5] was “a very faint band was produced at the expected position”.
